Test results reported in patent publication US20070293656A1, “COLLAGEN BINDING PEPTIDES” (Epix Pharmaceuticals, Inc., priority 2005, published 2007).
Where two headings read alike, the source gives them in different places. Blank lines part the entries; values can stand above or below the molecule they belong to. Bridge positions count the residues as written; N and C are the ends. Square brackets hold non-standard residues; d marks the D form. Primed or numbered codes have the meaning given here. Side chains are listed from the residue outwards. Ends that are not written are not given here. * marks the point of attachment. GdT″ = Gd-DTPA chelate conjugated through a thiourea; Dip = N[C@H](C(=O)O)C(c1ccccc1)c1ccccc1; Orn = NCCC[C@H](N)C(=O)O; Gd^T″ = GdDTPA-thiourea; Cbz = O=C(OCc1ccccc1)*

Tests used:
human collagen type I = target: T1, human collagen type I (Homo sapiens, UniProt P02452+P08123); test: Dried collagen assay (DCA): percent binding to dried human collagen; conditions: 5 μM peptide in PBS, pH 7.4, 2 hours at room temperature
T1 construct: Acid soluble human collagen extracted from placenta; purchased Sigma C7774 (lot #083K375); host or cells: human placenta
T1 sequence (P02452 162-1218 limits assumed): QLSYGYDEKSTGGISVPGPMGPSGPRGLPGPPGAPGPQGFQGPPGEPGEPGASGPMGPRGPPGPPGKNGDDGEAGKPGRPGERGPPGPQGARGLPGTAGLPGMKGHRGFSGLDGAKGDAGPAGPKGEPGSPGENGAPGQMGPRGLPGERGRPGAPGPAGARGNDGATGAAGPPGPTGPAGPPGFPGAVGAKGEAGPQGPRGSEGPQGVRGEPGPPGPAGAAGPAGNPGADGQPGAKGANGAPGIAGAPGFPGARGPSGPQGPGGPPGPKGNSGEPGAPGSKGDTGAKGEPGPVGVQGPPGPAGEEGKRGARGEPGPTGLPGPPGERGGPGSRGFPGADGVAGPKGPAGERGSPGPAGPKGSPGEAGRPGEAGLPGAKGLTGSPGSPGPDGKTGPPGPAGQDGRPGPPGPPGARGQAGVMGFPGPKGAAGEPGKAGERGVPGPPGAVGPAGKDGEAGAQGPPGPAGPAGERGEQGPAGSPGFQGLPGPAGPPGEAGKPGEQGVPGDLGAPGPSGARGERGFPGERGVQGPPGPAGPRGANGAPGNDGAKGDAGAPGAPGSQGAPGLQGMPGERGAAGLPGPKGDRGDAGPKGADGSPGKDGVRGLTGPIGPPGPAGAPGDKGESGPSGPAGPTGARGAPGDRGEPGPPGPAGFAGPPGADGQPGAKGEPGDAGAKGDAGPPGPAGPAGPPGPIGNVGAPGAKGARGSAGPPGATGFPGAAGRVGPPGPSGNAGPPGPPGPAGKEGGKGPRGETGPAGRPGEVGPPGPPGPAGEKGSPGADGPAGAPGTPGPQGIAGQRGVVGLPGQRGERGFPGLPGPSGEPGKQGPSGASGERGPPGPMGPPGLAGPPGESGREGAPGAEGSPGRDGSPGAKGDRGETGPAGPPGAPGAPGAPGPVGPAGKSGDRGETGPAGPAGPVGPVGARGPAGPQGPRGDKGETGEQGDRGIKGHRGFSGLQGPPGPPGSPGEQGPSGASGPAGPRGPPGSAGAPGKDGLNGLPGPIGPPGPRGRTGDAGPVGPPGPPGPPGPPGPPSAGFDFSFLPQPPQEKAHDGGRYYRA
T1 sequence (P08123 80-1119 limits assumed): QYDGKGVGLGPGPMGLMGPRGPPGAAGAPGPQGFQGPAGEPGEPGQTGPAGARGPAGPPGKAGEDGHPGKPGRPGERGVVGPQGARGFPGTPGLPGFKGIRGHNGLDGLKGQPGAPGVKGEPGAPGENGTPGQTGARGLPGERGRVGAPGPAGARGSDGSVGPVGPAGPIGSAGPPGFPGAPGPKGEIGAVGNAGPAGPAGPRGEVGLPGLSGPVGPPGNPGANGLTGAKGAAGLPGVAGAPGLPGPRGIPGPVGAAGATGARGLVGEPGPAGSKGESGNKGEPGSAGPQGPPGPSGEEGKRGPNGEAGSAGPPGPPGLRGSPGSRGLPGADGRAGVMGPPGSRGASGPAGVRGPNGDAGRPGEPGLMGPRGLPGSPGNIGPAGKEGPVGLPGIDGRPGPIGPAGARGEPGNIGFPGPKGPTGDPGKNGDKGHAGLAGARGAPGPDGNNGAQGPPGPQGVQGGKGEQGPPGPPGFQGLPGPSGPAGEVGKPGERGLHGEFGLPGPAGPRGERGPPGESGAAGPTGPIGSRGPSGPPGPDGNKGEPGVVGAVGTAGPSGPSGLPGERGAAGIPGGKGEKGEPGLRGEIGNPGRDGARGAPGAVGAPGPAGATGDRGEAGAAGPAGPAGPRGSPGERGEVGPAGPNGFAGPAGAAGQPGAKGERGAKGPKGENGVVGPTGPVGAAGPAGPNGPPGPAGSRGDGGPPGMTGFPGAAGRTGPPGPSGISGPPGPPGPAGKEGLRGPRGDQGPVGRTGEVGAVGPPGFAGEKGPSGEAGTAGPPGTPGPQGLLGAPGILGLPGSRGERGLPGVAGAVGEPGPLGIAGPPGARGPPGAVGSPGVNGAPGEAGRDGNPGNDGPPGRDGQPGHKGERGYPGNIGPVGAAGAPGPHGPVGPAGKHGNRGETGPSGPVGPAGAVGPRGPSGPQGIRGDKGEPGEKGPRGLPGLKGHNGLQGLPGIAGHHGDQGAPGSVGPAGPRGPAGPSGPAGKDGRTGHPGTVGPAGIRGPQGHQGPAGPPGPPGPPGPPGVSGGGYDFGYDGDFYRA
Method: Acid soluble human collagen extracted from placenta (Sigma, cat #C7774, lot #083K375) is dissolved in 15 mM HCl (3.5 mg/ml) by vortexing and gently shaking for 3-4 hours at 4° C. The acid soluble collagen is […] against PBS, pH 7.4 (three buffer exchanges are used). The […] protein concentration is determined by the BCA method (Pierce, Cat #23225) using bovine collagen (Vitrogen, cat #FXP-019) as a reference standard. Percent gelation (fibril formation) of the collagen is determined by incubating 10 μM collagen (3.3 mg/ml) at 37° C. for 6 hours. A typical percent gelation is 60%.
(§1) An additional 90 μL is reserved in a HPLC glass vial as a measure of the total concentration.

rat collagen type I = target: T2, rat collagen type I (Rattus norvegicus, UniProt P02454+P02466); test: Dried collagen assay (DCA): percent binding to dried rat collagen; conditions: 5 μM peptide in PBS, pH 7.4, 2 hours at room temperature
T2 construct: Rat collagen (acid soluble, type I, rat tail); purchased Upstate USA, Inc 08-115; host or cells: rat tail
T2 sequence (P02454 152-1207 limits assumed): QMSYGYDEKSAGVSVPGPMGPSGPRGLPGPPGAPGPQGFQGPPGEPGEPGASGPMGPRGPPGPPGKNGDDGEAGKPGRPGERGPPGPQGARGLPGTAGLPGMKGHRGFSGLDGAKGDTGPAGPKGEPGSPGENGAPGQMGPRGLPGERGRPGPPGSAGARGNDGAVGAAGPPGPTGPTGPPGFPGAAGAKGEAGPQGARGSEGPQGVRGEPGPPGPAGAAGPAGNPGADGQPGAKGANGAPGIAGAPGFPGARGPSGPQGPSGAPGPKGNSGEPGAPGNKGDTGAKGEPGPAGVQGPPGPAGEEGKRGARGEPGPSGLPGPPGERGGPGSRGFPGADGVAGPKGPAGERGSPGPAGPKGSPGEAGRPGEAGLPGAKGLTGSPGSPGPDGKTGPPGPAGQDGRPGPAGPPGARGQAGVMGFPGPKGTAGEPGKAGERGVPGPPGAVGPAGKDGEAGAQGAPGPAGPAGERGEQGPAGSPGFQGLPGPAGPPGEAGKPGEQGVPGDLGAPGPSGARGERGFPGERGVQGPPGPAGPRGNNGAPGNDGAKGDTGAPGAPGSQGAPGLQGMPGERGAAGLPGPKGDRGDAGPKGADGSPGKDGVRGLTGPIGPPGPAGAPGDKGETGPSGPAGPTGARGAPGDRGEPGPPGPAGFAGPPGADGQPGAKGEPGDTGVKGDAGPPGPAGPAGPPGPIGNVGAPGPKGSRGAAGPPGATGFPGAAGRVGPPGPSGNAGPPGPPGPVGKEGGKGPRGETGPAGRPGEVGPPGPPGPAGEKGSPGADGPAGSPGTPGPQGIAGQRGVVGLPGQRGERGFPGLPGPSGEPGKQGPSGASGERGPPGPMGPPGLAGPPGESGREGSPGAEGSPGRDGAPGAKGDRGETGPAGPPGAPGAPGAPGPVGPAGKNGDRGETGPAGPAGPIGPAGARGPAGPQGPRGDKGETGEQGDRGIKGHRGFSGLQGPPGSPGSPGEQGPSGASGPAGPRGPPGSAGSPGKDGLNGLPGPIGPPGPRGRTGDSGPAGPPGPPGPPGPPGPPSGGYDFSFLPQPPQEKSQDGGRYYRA
T2 sequence (P02466 86-1125 limits assumed): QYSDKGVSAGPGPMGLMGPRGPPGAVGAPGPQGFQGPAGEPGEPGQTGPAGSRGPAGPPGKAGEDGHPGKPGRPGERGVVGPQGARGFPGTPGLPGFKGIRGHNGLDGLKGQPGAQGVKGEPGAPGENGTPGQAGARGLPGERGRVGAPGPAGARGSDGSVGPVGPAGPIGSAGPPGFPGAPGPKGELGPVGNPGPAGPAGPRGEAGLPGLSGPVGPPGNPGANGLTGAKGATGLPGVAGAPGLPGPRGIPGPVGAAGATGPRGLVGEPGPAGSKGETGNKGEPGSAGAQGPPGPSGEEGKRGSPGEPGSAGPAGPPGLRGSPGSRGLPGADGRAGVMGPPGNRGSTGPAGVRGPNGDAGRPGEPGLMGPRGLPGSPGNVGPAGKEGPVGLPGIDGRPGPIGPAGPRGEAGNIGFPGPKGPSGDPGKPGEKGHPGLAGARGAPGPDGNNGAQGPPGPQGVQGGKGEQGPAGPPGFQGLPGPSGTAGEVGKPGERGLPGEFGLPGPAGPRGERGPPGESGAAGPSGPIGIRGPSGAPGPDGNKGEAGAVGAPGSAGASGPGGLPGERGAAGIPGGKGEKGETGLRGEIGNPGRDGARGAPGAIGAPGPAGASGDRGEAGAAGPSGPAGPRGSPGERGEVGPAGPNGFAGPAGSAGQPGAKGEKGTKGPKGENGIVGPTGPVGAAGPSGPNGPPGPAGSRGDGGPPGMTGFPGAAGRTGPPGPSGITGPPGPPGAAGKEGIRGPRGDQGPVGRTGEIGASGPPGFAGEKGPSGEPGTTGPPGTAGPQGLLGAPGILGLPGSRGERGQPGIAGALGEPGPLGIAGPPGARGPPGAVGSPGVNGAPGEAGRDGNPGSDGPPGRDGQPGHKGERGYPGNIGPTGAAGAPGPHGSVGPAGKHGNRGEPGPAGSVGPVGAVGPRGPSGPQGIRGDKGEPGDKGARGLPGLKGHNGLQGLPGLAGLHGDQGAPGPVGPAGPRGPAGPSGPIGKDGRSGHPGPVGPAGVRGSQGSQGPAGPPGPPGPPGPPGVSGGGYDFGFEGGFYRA
Method: Rat collagen (acid soluble, type I, rat tail, Upstate USA, Inc, cat #08-115) is dialyzed against 10 mM Phosphate (NaH2PO4), pH 4.2 with three changes of the dialysis buffer. For the final assay, a 1:10 volume of 10×PBS (100 mM NaH2PO4, 1.5 M NaCl pH 7.4) is added to the collagen solution (final 1×PBS) and incubated at 37° C. for 2 hours. The gelation is typically 90%.
as §1

[1] = target: T3, rat collagen (acid soluble, type I, rat tail, Upstate 08-115) (rat, UniProt P02454 152-1207; P02466 86-1125); test: dried collagen assay
T3 construct: also called dried rat collagen; insoluble rat collagen
T3 sequence (P02454 152-1207 limits assumed, chain 1 of 2): as the sequence (P02454 152-1207 limits assumed) above
T3 sequence (P02466 86-1125 limits assumed, chain 2 of 2): as the sequence (P02466 86-1125 limits assumed) above

[2] = target: human collagen type I (acid soluble, extracted from placenta, Sigma C7774) (human) (UniProt P02452); test: dried collagen assay
Sequence of human collagen type I (acid soluble, extracted from placenta, Sigma C7774) (human) (P02452 162-1218 limits assumed, chain 1 of 2): as the sequence (P02452 162-1218 limits assumed) above
Sequence of human collagen type I (acid soluble, extracted from placenta, Sigma C7774) (human) (P08123 80-1119 limits assumed, chain 2 of 2, further chain): as the sequence (P08123 80-1119 limits assumed) above

[3] = target: rat collagen (acid soluble, type I, rat tail, Upstate 08-115) (rat) (UniProt P02454); test: dried collagen assay
Sequence of rat collagen (acid soluble, type I, rat tail, Upstate 08-115) (rat) (P02454 152-1207 limits assumed, chain 1 of 2): as the sequence (P02454 152-1207 limits assumed) above
Sequence of rat collagen (acid soluble, type I, rat tail, Upstate 08-115) (rat) (P02466 86-1125 limits assumed, chain 2 of 2, further chain): as the sequence (P02466 86-1125 limits assumed) above

[4] = target: T4, human collagen type I (acid soluble, extracted from placenta, Sigma C7774) (human, UniProt P02452 162-1218; P08123 80-1119); test: dried collagen assay
T4 construct: gelled and dried as a fibril film in the assay; also called dried human collagen; h-Collagen
T4 sequence (P02452 162-1218 limits assumed, chain 1 of 2): as the sequence (P02452 162-1218 limits assumed) above
T4 sequence (P08123 80-1119 limits assumed, chain 2 of 2): as the sequence (P08123 80-1119 limits assumed) above

[5] = target: T3, rat collagen (acid soluble, type I, rat …); test: dried collagen assay; remark: listed apart in the source

Molecule: 65 (KWECVHTKGEWYCETK) [compound 65]
Dried Human Collagen Binding (human collagen type I): 7%

Molecule: 36 (SWSCGGDHNAWKCQYS) [compound 36]
Dried Human Collagen Binding (human collagen type I): 7%

Molecule: 3 (PWWCHEMPSMCFGF) [compound 3]
Dried Human Collagen Binding (human collagen type I): 2%

Molecule: 2 (WGWCEWAQNNCWNY) [compound 2]
Dried Human Collagen Binding (human collagen type I): 14%

Molecule: 38 (GWSCHGDAADWPCQWS) [compound 38]
Dried Human Collagen Binding (human collagen type I): 6%

Molecule: 39 (GWQCSGDASVWNCDWI) [compound 39]
Dried Human Collagen Binding (human collagen type I): 6%

Molecule: 112 (AKACSVHDEFGCLIS; disulfide 4-12 (inferred)) [compound 112]
Dried Human Collagen Binding (human collagen type I): 9%

Molecule: 37 (LWNCHGTDANWKCVLN) [compound 37]
Dried Human Collagen Binding (human collagen type I): 7%

B1: Comp ID 967 (peptide)
peptide: {Gd^T″}-GK([Gly-Gd^T″])WHCTTYFPHHYCL[Dip]G
modifications: disulfide 5-14 (inferred); not fully specified (C-terminus); printed as Gd^T-G-K(G.Gd^T)-WHCTTYFPHHYCL-Dip-G
% bound [1]: 4%

Molecule: GQWHCTTRFPHHXCLYG (not fully specified; Gd^T-GQWHCTTRFPHH-bip-CLYG) [Comp ID 903]
% bound [2]: 3% | % bound [3]: 5%

B2: Comp ID 941 (peptide)
peptide: Cbz-GQWHCT[Orn](Gd^T″)RFPHHYCLYG
modifications: disulfide 5-14; not fully specified (C-terminus); printed as cbz-GQWHCT-Orn(Gd^T)-RFPHHYCLYG
% bound [2]: 8% | % bound [1]: 5%

Molecule: GQWHCTTRFPHHYXLYG (not fully specified; Gd^T-GQWHCTTRFPHHY-Pen-LYG) [Comp ID 906]
% bound [1]: 5%

Molecule: {GdT″}-GK([Gly-GdT″])WHCTTYFPHH[Dip]CLYG (disulfide 5-14; not fully specified (C-terminus)) [Comp ID 968]
% bound [1]: 64%

Molecule: GQWHCTTRFPHAYCLYG (not fully specified; Gd^T-GQWHCTTRFPHAYCLYG) [Comp ID 878]
% bound [2]: 8% | % bound [1]: 9%

Molecule: GQWHCTTDFPHHYCLYG (not fully specified; Gd^T-GQWHCTTD-F(4-NH2)(Gd^T)-PHHYCLYG) [Comp ID 885]
% bound [1]: 9%

Molecule: GQWHCTDRFPHHYCLYG (not fully specified; Gd^T-GQWHCTDRFPHHYCLYG) [Comp ID 936]
% bound [1]: 5%

Molecule: GQWHCTTRFPHHFCLYG (not fully specified; Gd^T-GQWHCTTRFPHHfCLYG) [Comp ID 901]
% bound [2]: 2% | % bound [3]: 2%

Molecule: GQWHCTTLFPHHYCLYG (not fully specified; Gd^T-GQWHCTTLFPHHyCLYG) [Comp ID 907]
% bound [2]: 6% | % bound [3]: 1%

Molecule: AHACYQAGCWIW (disulfide 4-9 (inferred)) [SEQ ID NO: 131]
% bound [4]: 7% | % bound [5]: 12%

Molecule: YHACAQAGCWIW (disulfide 4-9 (inferred)) [SEQ ID NO: 133]
% bound [4]: 4% | % bound [5]: 5%

Molecule: YHACYQAGCWAW (disulfide 4-9 (inferred)) [SEQ ID NO: 137]
% bound [3]: 7% | % bound [4]: 4%

Molecule: YHACYQAGCAIW (disulfide 4-9 (inferred)) [SEQ ID NO: 136]
% bound [4]: 2% | % bound [5]: 2%

Molecule: YHACYAAGCWIW (disulfide 4-9 (inferred)) [SEQ ID NO: 134]
% bound [4]: 14% | % bound [5]: 1%

Molecule: YHACYQAACWIW (disulfide 4-9 (inferred)) [SEQ ID NO: 135]
% bound [4]: 72% | % bound [5]: 88%

Molecule: YAACYQAGCWIW (disulfide 4-9 (inferred)) [SEQ ID NO: 132]
% bound [4]: 53% | % bound [5]: 37%

Molecule: YHACYQAGCWIA (disulfide 4-9 (inferred)) [SEQ ID NO: 138]
% bound [4]: 2% | % bound [5]: 1%

Molecule: GQWHCTTDFPHHYCLYG (not fully specified; Gd^T-GQWHCTTD-F(3,4-OMe)-PHHYCLYG) [Comp ID 893]
% bound [2]: 4% | % bound [3]: 2%

Second part, the molecule after the results:

Dried Human Collagen Binding (human collagen type I): 3%
Molecule: 113 (FSECVWVNAYQCEYF; disulfide 4-12 (inferred)) [compound 113]

% Collagen Binding Dried Human (human collagen type I): 3% | % Collagen Binding Dried Rat (rat collagen type I): 2%
Molecule: 168 (QWTC[dS]GDEYTWHCNYE; disulfide 4-13 (inferred)) [compound 168]

% Collagen Binding Dried Rat (rat collagen type I): 7%
Molecule: 137 (YHACYQAGCWAW; disulfide 4-9 (inferred)) [compound 137]

% Collagen Binding Dried Human (human collagen type I): 2% | % Collagen Binding Dried Rat (rat collagen type I): 3%
Molecule: 166 (QW[dT]CSGDEYTWHCNYE; disulfide 4-13 (inferred)) [compound 166]

% Collagen Binding Dried Rat (rat collagen type I): 4%
Molecule: 169 (QWTCSG[dD]EYTWHCNYE; disulfide 4-13 (inferred)) [compound 169]

% Collagen Binding Dried Human (human collagen type I): 2% | % Collagen Binding Dried Rat (rat collagen type I): 4%
Molecule: 165 (Q[dW]TCSGDEYTWHCNYE; disulfide 4-13 (inferred)) [compound 165]

% Collagen Binding Dried Human (human collagen type I): 5%
Molecule: 174 (QWTCSGDEYTW[dH]CNYE; disulfide 4-13 (inferred)) [compound 174]

% Collagen Binding Dried Human (human collagen type I): 7%
Molecule: 159 (YHACYQAG[dC]WIW; disulfide 4-9 (inferred)) [compound 159]

% Collagen Binding Dried Rat (rat collagen type I): 6%
Molecule: 142 (QWTCSADEYTWHCNYE; disulfide 4-13 (inferred)) [compound 142]

Dried Human Collagen Binding (human collagen type I): 32%
Molecule: 130 (WWACQKGRHDWEKCRWL; disulfide 4-14 (inferred)) [compound 130]

% Collagen Binding Dried Rat (rat collagen type I): 53%
Molecule: 163 ([dY][dH][dA][dC][dY][dQ][dA]G[dC][dW][dI][dW]; disulfide 4-9 (inferred)) [compound 163]

% Collagen Binding Dried Human (human collagen type I): 2% | % Collagen Binding Dried Rat (rat collagen type I): 2%
Molecule: 176 (QWTCSGDEYTWHC[dN]YE; disulfide 4-13 (inferred)) [compound 176]

% Collagen Binding Dried Human (human collagen type I): 2% | % Collagen Binding Dried Rat (rat collagen type I): 2%
Molecule: 175 (QWTCSGDEYTWH[dC]NYE; disulfide 4-13 (inferred)) [compound 175]

% Collagen Binding Dried Human (human collagen type I): 5%
Molecule: 147 (QWTCSGDEYTAHCNYE; disulfide 4-13 (inferred)) [compound 147]

% Collagen Binding Dried Human (human collagen type I): 4%
Molecule: 167 (QWT[dC]SGDEYTWHCNYE; disulfide 4-13 (inferred)) [compound 167]

% Collagen Binding Dried Human (human collagen type I): 5% | % Collagen Binding Dried Rat (rat collagen type I): 4%
Molecule: 173 (QWTCSGDEYT[dW]HCNYE; disulfide 4-13 (inferred)) [compound 173]

% Collagen Binding Dried Rat (rat collagen type I): 6%
Molecule: 171 (QWTCSGDE[dY]TWHCNYE; disulfide 4-13 (inferred)) [compound 171]
